Test results from patent US11312773B2, “Anti-PD-L1 antibody” (Fuso Pharmaceutical Industries, Ltd., priority 2016, dated 2022).

Tests used:
[1] = test system: canine CD80/PD-L1 binding; assay: Canine CD80/PD-L1 binding inhibition ELISA (cCD80-Ig immobilized, cPD-L1-Ig); conditions: antibody 0, 2.5, 5 and 10 μg/ml
Experimental: Using the canine PD-1-Ig, PD-L1-Ig and CD80-Ig (described above), anti-PD-L1 antibody was tested for its ability to inhibit canine PD-1/PD-L1 binding and CD80/PD-L1 binding. Briefly, canine PD-1-Ig or CD80-Ig was immobilized on flat-bottom 96-well plates.

[2] = test system: water buffalo leukocytes; assay: Flow cytometry reactivity with water buffalo leukocytes; type: binding, water buffalo (Bubalus bubalis)
Experimental: Peripheral blood of water buffalo (Bubalus bubalis; Asian water buffalo) was hemolyzed with ACK buffer to isolate leukocytes. […] After washing, reaction with allophycocyanine-labelled anti-rat Ig goat antibody (Beckman Coulter) and fluorescein isothiocyanate-labeled anti-mouse IgG2 goat antibody (Beckman Coulter) was conducted at room temperature for 30 min. For analysis, FACS Calibur (BD Biosciences) was used. As a negative control antibody, rat IgG2a (κ) isotype control (BD Biosciences) was used. For every washing operation and dilution of antibodies, 10% inactivated goat serum supplemented PBS was used.

[3] = test system: porcine PD-L1; assay: Flow cytometry reactivity with porcine PD-L1-EGFP expressing COS-7 cells; type: binding; conditions: 10 μg/ml
Experimental: COS-7 cells were subcultured at a density of 5×10^4 cells/cm^2 in 6-well plates, and then cultured overnight in RPMI 1640 medium containing 10% inactivated fetal bovine serum and 0.01% L-glutamine at 37° C. in the presence of 5% CO2. The pEGFP-N2-ovPD-1, pEGFP-N2-ovPD-L1, pEGFP-N2-poPD-1, pEGFP-N2-poPD-L1 or pEGFP-N2 (negative control) was introduced into COS-7 cells at 0.4 μg/cm^2 using Lipofectamine 2000 (Invitrogen). The cells were cultured for 48 hours (ovPD-1-EGFP expressing cell, ovPD-L1-EGFP expressing cell, poPD-1-EGFP expressing cell, and poPD-L1-EGFP expressing cell). In order to confirm the expression of ovine PD-1, ovine PD-L1, porcine PD-1 and porcine PD-L1 in the thus prepared expressing cells, intracellular localization of EGFP was visualized with an inverted confocal laser microscope LSM700 (ZEISS) or an all-in-one fluorescence microscope BZ-9000 (KEYENCE). It was confirmed by flow cytometry that rat anti-bovine PD-L1 monoclonal antibody cross-reacts with ovine and porcine PD-LL. […] After washing, the cells were reacted with allophycocyanine-labeled anti-rat Ig goat antibody (Beckman Coulter) at room temperature for 30 min. For analysis, FACS Verse (BD Bioscience) was used. As a negative control antibody, rat IgG2a (κ) isotype control (BD Bioscience) was used. For every washing operation and dilution of antibodies, 1% bovine serum albumin supplemented PBS was used.

[4] = test system: ovine PD-1/PD-L1 binding; assay: Ovine PD-1/PD-L1 binding inhibition test (PD-1-EGFP COS-7 cells and PD-L1-Ig); conditions: antibody 0-50 μg/ml, ovine PD-L1-Ig 1 μg/ml
Experimental: Using ovine PD-1-EGFP expressing COS-7 cells and ovine PD-L1-Ig recombinant protein, or porcine PD-1-EGFP expressing COS-7 cells and porcine PD-L1-Ig recombinant protein, inhibition of ovine or porcine PD-1/PD-L1 binding by rat anti-bovine PD-L1 antibody […] was tested. […] Subsequently, the antibody 4G12 was reacted with 2×10^5 ovine PD-1-EGFP expressing COS-7 cells or porcine PD-1-EGFP expressing COS-7 cells at 37° C. for 30 min. After washing, ovine PD-L1-Ig or porcine PD-L1-Ig bound to cell surfaces was detected with Alexa Fluor 647-labeled anti-rabbit IgG (H+L) goat F(ab′)2 (Life Technologies). For analysis, FACS Verse (BD Biosciences) was used. As a negative control antibody, rat IgG2a (κ) isotype control (BD Biosciences) was used. Taking the proportion of PD-L1-Ig bound cells without antibody addition as 100%, the proportion of PD-L1-Ig bound cells at each antibody concentration was shown as relative value.

[5] = biological target: T1, canine PD-1/PD-L1 binding (Canis lupus familiaris, UniProt A0A8I3P7C4); assay: Canine PD-1/PD-L1 binding inhibition ELISA (cPD-1-Ig immobilized, biotinylated cPD-L1-Ig); conditions: antibody 0, 2.5, 5 and 10 μg/ml
T1 construct: made in house; host or cells: Expi293F
T1 sequence (A0A8I3P7C4 19-237): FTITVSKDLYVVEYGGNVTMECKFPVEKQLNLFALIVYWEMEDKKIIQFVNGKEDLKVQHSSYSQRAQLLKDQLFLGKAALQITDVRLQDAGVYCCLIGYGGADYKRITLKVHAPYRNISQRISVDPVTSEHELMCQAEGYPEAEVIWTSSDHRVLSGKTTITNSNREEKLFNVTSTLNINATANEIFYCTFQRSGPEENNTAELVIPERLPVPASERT
Experimental: Briefly, canine PD-1-Ig (prepared in 2.4 above) was immobilized on flat bottomed 96-well plates and blocked with 1% BSA and 0.05% Tween 20-containing PBS. […] The binding of cPD-L1-Ig to cPD-1-Ig was measured by color reaction using Neutravidin-HRP (Thermo Fisher Scientific) and TMB one component substrate (Bethyl Laboratories).
Briefly, heavy chain and light chain variable region genes were identified from hybridomas producing rat anti-bovine PD-L1 monoclonal antibodies 4G12 and 6G7. Further, the heavy chain and light chain variable region genes of the above rat antibodies were linked to the constant region of heavy chain IgG4 and the constant region of light chain Lambda of a known canine antibody, respectively, to prepare nucleotide sequences, followed by codon optimization (SEQ ID NOS: 9 and 10 (amino acid sequences), SEQ ID NOS: 19 and 20 (nucleotide sequences after codon optimization). Then, synthesis of genes was performed so that NotI restriction enzyme recognition site. KOZAK sequence, chimeric antibody's light chain sequence, poly-A addition signal sequence (PABGH), promoter sequence (PCMV), SacI restriction enzyme recognition site, intron sequence (INRBG), KOZAK sequence, chimeric antibody's heavy chain sequence and XbaI restriction enzyme recognition site would be located in this order. […]

B1: 4G12: rat anti-bovine PD-L1 monoclonal antibody; VL SEQ ID NO: 1, VH SEQ ID NO: 2 (antibody, listed as Rattus norvegicus, V domains shown)
VH: MGWSQIILFLVAAATCVHSQVQLQQSGAELVKPGSSVKISCKASGYTFTSNFMHWVKQQPGNGLEWIGWIYPEYGNTKYNQKFDGKATLTADKSSSTAYMQLSSLTSEDSAVYFCASEEAVISLVYWGQGTLVTVSS
VL: MESQTHVLISLLLSVSGTYGDIAITQSPSSVAVSVGETVTLSCKSSQSLLYSENQKDYLGWYQQKPGQTPKPLIYWATNRHTGVPDRFTGSGSGTDFTLIISSVQAEDLADYYCGQYLVYPFTFGPGTKLELK
Inhibitory activity against canine CD80/PD-L1 binding [1]: reduced the amounts of binding
Binding to blood macrophages (CD14+ CD11b+ cells) of water buffalo [2]: strongly bound
Binding to lymphocytes (CD14− CD11b− cells) of water buffalo [2]: weakly bound
Binding to porcine PD-L1 [3]: binds to ovine and porcine PD-L1
Inhibition of ovine PD-1/PD-L1 binding [4]: capable of inhibiting
Inhibitory activity against canine PD-1/PD-L1 binding [5]: reduced the amounts of binding
